This is an account of results in patent publication US20260250318A1, “COMPOSITIONS AND METHODS FOR CROSSING THE BLOOD BRAIN BARRIER” (VOYAGER THERAPEUTICS, INC., priority 2022, published 2026).

Positions count from the first letter of the chain named.

Assay [1] has as its target T1, ALPL (Homo sapiens, UniProt P05186).
T1 sequence (P05186 18-501): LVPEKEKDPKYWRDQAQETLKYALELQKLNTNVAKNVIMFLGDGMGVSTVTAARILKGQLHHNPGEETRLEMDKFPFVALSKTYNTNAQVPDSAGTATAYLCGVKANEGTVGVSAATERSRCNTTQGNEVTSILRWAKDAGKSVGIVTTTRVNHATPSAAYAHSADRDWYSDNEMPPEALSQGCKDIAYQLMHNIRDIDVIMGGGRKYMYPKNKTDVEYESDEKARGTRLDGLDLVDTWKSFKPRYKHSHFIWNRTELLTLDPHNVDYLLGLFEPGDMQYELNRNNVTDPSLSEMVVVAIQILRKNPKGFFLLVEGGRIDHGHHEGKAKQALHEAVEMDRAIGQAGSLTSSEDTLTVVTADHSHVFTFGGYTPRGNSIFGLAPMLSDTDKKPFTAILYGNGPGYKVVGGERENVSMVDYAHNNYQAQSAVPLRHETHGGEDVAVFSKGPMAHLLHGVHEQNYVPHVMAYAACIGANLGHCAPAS
The experiment in a line: SPR (Biacore 8K) binding of peptide ligands to ALPL. The conditions noted are these: 50 μM peptides or 250 nM capsids flowed over. How it is done: Binding and interaction between the peptides and the ALPL receptor were measured by Surface Plasmon Resonance (SPR) on a Biacore 8K instrument. The biotinylated peptides in Table 37 were captured on the streptavidin biosensor chip and 1000 nM of ALPL and buffer were passed over the peptides to monitor binding. […] His-tagged ALPL was then captured on the chip pre-immobilized with anti-His antibody, and 50 μM of the peptides in Table 37 or 250 nM of the AAV9 control capsid, the TTM-001 capsid variant (SEQ ID NO: 981), or the TTM-002 capsid variant (SEQ ID NO: 982) were flowed over the ALPL to check for binding. […] The longer peptides derived from TTM-002,
were also flowed over the his-tagged ALPL captured on the CM5 sensor chip pre-immobilized with anti-His antibody.
Binding and interaction between the phosho-peptides and the ALPL receptor were also measured by SPR. The biotinylated and phosphorylated peptides in Table 38 were captured on the streptavidin biosensor chip along with their non-phosphorylated counterparts, […] (SEQ ID NO: 4500) and […] (SEQ ID NO: 4503). ALPL and buffer were passed over the peptides to monitor binding. The concentration of ALPL used ranged from 0 to 500 nM (0 nM, 125 nM, 250 nM, and 500 nM).
In a second experiment, his-tagged ALPL was first captured on a CM5 sensor chip pre-immobilized with anti-His antibody. The phosphorylated peptides in Table 38 and their non-phosphorylated counterparts, […] (SEQ ID NO: 4500) and […] (SEQ ID NO: 4503) and buffer were flowed over the ALPL protein to monitor binding.

The test system of assay [2] is N-linked galactose on HeLa cells. The experiment in a line: Transduction of HeLa cells after neuraminidase treatment (Luc2 activity). The assay is classed as cell-based, human. How it is done: Primary glycan receptors have been identified for various AAV serotypes, including AAV9 which binds N-linked galactose. In order to investigate the ability of TTM-001 and TTM-002 AAV9 variants to retain this natural glycan binding, HeLa cells were treated with increasing concentrations of Neuraminidase ([…]), which cleaves N-sialic acid and exposes N-galactose. The treated cells were then transduced with AAV particles comprising the TTM-001 capsid variant (AAV_TTM-001), the TTM-002 capsid variant (AAV_TTM-002), or an AAV9 control (AAV_AAV9cntl), transduction was measured by quantification of Luc2 activity (RLU), and data was normalized relative to the no neuraminidase control.

Assay [3] shares this test system. The description is as above. The assay is classed as cell-based, human. Particulars: Neuraminidase 1000 mU/mL.
In assay [4] the target is T2, ALPL (Homo sapiens, UniProt P05186).
T2 construct: expressed in transfected cells; host or cells: HEK 293T
T2 sequence (P05186 whole entry, looked up): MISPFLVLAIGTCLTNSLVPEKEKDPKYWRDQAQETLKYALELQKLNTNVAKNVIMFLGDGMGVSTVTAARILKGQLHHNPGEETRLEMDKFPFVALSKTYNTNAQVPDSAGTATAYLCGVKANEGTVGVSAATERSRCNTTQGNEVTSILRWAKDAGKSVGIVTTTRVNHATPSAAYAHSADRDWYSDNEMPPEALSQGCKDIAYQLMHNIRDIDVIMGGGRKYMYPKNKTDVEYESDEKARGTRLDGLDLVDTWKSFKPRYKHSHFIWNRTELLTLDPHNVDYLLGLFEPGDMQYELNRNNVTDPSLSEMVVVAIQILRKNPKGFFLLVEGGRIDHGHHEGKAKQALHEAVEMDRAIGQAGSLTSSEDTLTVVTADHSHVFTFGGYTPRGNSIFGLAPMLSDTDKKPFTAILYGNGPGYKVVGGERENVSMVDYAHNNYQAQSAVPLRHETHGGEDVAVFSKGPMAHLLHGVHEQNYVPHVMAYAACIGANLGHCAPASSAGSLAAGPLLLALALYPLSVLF
The assay is classed as cell-based. Particulars: for fold increase in transduction by luciferase assay in cells expressing ALPL: relative to pCMV6 transfected cells, 24 hours post-transduction; for Luciferase Activity (RLU): Table 30, ALPL transfected cells. How it is done:
Briefly, a transduction assay was performed in that HEK 293T cells were transfected via calcium phosphate transfection with a plasmid expressing ALPL, an AAVR positive control, or a pCMV6 negative control (250 ng or 500 ng of plasmid). AAVR is a universal AAV entry factor involved in AAV transduction. […] At 24-hours post-transduction, GFP expression and luciferase activity were measured to quantify and observe AAV cellular transduction. […] The TTM-002, TTM-006, TTM-018, and TTM-019 capsid variants all comprised the SPH motif immediately subsequent to position 455, numbered relative to SEQ ID NO: 138 and a positive residue in one of the next three residues subsequent to the SPH motif.
To determine if the TTM-001 and TTM-002 capsid variants could bind to both the human ALPL protein (NM_000478.6, which is incorporated by reference herein) and the mouse ALPL ortholog (NM_001287172.1, which is incorporated by reference herein), HEK 293T cells were transfected via calcium phosphate transfection with a plasmid expressing human ALPL, the murine ortholog of ALPL, or a pCMV6 negative control. At 24 hours post-transfection, the HEK 293T cells expressing the ALPL receptor were transduced with an AAV particle comprising the TTM-001 capsid variant, the TTM-002 capsid variant, or an AAV9 control capsid protein, expressing a Luc2-GFP payload. At 24-hours post-transduction, luciferase activity (RLU) was measured to quantify AAV cellular transduction.

In the case of “AAV9: wild-type AAV9 control capsid [reference compound]”, in assay [1], the “binding to ALPL by SPR, His-tagged ALPL captured on chip” value (“binding to ALPL by SPR” for short) is given as “No detectable binding”. For the same molecule, the “fold change in Luc2 activity (RLU) relative to the no neuraminidase control” value came out at 2.7 fold in assay [2] (Neuraminidase 5 mU/mL), 6.2 fold in assay [2] (Neuraminidase 50 mU/mL), 11.1 fold in assay [2] (Neuraminidase 500 mU/mL) and 10.4 fold in assay [3]. The “fold increase in transduction by luciferase assay in cells expressing ALPL” value in assay [4] is given as “not affected”.

B1: TTM-001: AAV9 capsid variant comprising SPHSKA (SEQ ID NO: 941) in loop IV (protein)
chain 1: MAADGYLPDWLEDNLSEGIREWWALKPGAPQPKANQQHQDNARGLVLPGYKYLGPGNGLDKGEPVNAADAAALEHDKAYDQQLKAGDNPYLKYNHADAEFQERLKEDTSFGGNLGRAVFQAKKRLLEPLGLVEEAAKTAPGKKRPVEQSPQEPDSSAGIGKSGAQPAKKRLNFGQTGDTESVPDPQPIGEPPAAPSGVGSLTMASGGGAPVADNNEGADGVGSSSGNWHCDSQWLGDRVITTSTRTWALPTYNNHLYKQISNSTSGGSSNDNAYFGYSTPWGYFDFNRFHCHFSPRDWQRLINNNWGFRPKRLNFKLFNIQVKEVTDNNGVKTIANNLTSTVQVFTDSDYQLPYVLGSAHEGCLPPFPADVFMIPQYGYLTLNDGSQAVGRSSFYCLEYFPSQMLRTGNNFQFSYEFENVPFHSSYAHSQSLDRLMNPLIDQYLYYLSKTINGSGSPHSKAQNQQTLKFSVAGPSNMAVQGRNYIPGPSYRQQRVSTTVTQNNNSEFAWPGASSWALNGRNSLMNPGPAMASHKEGEDRFFPLSGSLIFGKQGTGRDNVDADKVMITNEEEIKTTNPVATESYGQVATNHQSAQAQAQTGWVQNQGILPGMVWQDRDVYLQGPIWAKIPHTDGNFHPSPLMGGFGMKHPPPQILIKNTPVPADPPTAFNKDKLNSFITQYSTGQVSVEIEWELQKENSKRWNPEIQYTSNYYKSNNVEFAVNTEGVYSEPRPIGTRYLTRNL
chain 2: GSGSPHSKAQNQQT
As to B1, the “binding to ALPL by SPR” value in assay [1] is “Binding to ALPL was detected”. Further, the “fold change in Luc2 activity (RLU) relative to the no neuraminidase control” value in assay [2] (Neuraminidase 5 mU/mL) was determined as 5.2 fold; in assay [2] (Neuraminidase 50 mU/mL), 6.7 fold; in assay [2] (Neuraminidase 500 mU/mL) it was 8.2 fold; in assay [3] it was 9.1 fold. Further, the “Luciferase Activity (RLU)” value in assay [4] is 93,268 RLU.

B2: TTM-002: AAV9 capsid variant comprising HDSPHK (SEQ ID NO: 2) in loop IV (protein)
chain 1: B1 chain 1 with S454H, G455D, S459K, K460S, A461G
chain 2: GHDSPHKSGQNQQT
As for B2, the “binding to ALPL by SPR” value in assay [1] is “Binding to ALPL was detected”. In addition, the “fold change in Luc2 activity (RLU) relative to the no neuraminidase control” value was 9.6 fold in assay [2] (Neuraminidase 5 mU/mL), 12.5 fold in assay [2] (Neuraminidase 50 mU/mL), 13.9 fold in assay [2] (Neuraminidase 500 mU/mL) and 13.7 fold in assay [3]. The “transduction by immunofluorescence microscopy in cells expressing ALPL” value in assay [4] (GFP, compared to AAV9 control capsid) is “a significant increase in the transduction”. The “Luciferase Activity (RLU)” value in assay [4] is given as 46,182 RLU. Moreover, in assay [4], the “fold increase in transduction by luciferase assay in cells expressing ALPL” value is 45 fold.
